Where no end group is shown, it is not given here.
B1: biotinylated TAMpep (peptide)
chain: VLTTGLPALISWIKRKRQQ
modifications: also: biotin, position not given here
B2: CD18 I-domain (Cloud-Clone) (domain or fragment)
chain: GYPIDLYYLMDLSYSMLDDLRNVKKLGGDLLRALNEITESGRIGFGSFVDKTVLPFVNTHPDKLRNPCPNKEKECQPPFAFRHVLKLTNNSNQFQTEVGKQLISGNLDAPEGGLDAMMQVAACPEEIGWRNVTRLLVFATDDGFHFAGDGKLGAILTPNDGRCHLEDNLYKRSNEFDYPSVGQLAHKLAENNIQPIFAVTSRMVKTYEKLTEIIPKSAVGELSEDSSNVVHLIKNAYNKL

Key:
[1] = molecular target: CD18 cysteine-rich domain (Cloud-Clone); assay: SPR
[2] = molecular target: B1; assay: SPR

Binder | Kd [1] [nM] | Kd [2] [nM]
B1 | 0.185 | –
B2 | – | 4.7

— PMC11973759 (Journal for Immunotherapy of Cancer, 2025)
